Entries after “also recorded” stand apart in the source; their conditions may differ.
How the values were obtained:
[1] = tested on: LNCaP human prostate cancer cells; test: Smad phosphorylation in LNCaP prostate cancer cells (Western blot); type: cell-based; conditions: single agent, cultured LNCaP cells
Method: The detection of Smad phosphorylation by Western analysis, for example in LNCaP (prostate cancer cells) or EC (vascular endothelial cells) in culture medium can be examined after exposure to varying concentrations of TDFRP or control compounds. BMP-7 serves as a positive control. Cells are lysed in RIPA lysis buffer (50 mM Tris-HCl at pH 8.0, 150 mM NaCl, 1% NP-40, 0.5% sodium deoxycholate, 0.1% SDS) containing 1 mM PMSF, 1 mM sodium orthovanadate, and 10 ug/mL proteinase inhibitor cocktail. Lysates are incubated on ice for 15 minutes, centrifuged, and transferred supernatant to a clean tube. 50 to 100 ug is used for analysis by SDS-PAGE. Resolved proteins are electro transferred onto PVDF membrane. The blot is blocked by incubating in 3% non-fat dry milk prepared in PBS at room temperature for 1 hour with constant slow agitation. The blot is incubated with 1-2 ug/mL of primary antibody (rabbit anti-phospho-Smad 1) prepared in PBS-milk, overnight with agitation at 4 degree C., washed twice with PBS, and incubated with secondary antibody (anti rabbit HRP conjugated IgG, 1:3000 dilution) at room temperature for 2 hours with agitation. After washing in PBS-0.05% Tween 20 for 5 minutes and rinsing, Smad phosphorylation is detected via an HRP reaction according to manufacturer's instructions (FIGS. 2, 3, 18, 2X).
For detection of Smad phosphorylation by Western analysis, LNCaP (prostate cancer cells) or EC (vascular endothelial cells) in culture medium are exposed to varying concentrations of TDFRP or control compounds. BMP-7 served as a positive control. Cells are lysed in RIPA lysis buffer (50 mM Tris-HCl at pH 8.0, 150 mM NaCl, 1% NP-40, 0.5% sodium deoxycholate, 0.1% SDS) containing 1 mM PMSF, 1 mM sodium orthovanadate, and 10 ug/mL proteinase inhibitor cocktail. Lysates are incubated on ice for 15 minutes, centrifuged, and transferred supernatant to a clean tube. 50 to 100 ug is used for analysis by
SDS-PAGE. Resolved proteins are electro transferred onto PVDF membrane. The blot is blocked by incubating in 3% non-fat dry milk prepared in PBS at room temperature for 1 hour with constant slow agitation. The blot is incubated with 1-2 ug/mL of primary antibody (rabbit anti-phospho-Smad 1) prepared in PBS-milk, overnight with agitation at 4 degree C., washed twice with PBS, and incubated with secondary antibody (anti rabbit HRP conjugated IgG, 1:3000 dilution) at room temperature for 2 hours with agitation. After washing in PBS-0.05% Tween 20 for 5 minutes and rinsing, Smad phosphorylation is detected via an HRP reaction according to manufacturer's instructions (FIGS. 3, 27).
BMP signaling molecules co-administered with TDFRP compounds show synergistic or enhanced downstream signaling as detected by Smad phosphorylation. Smad phosphorylation was assessed by Western analysis in LNCaP (prostate cancer cells) or EC (vascular endothelial cells) cells in culture medium exposed to varying concentrations of TDFRP or control compounds. BMP-7 served as a positive control. Cells are lysed in RIPA lysis buffer (50 mM Tris-HCl at pH 8.0, 150 mM NaCl, 1% NP-40, 0.5% sodium deoxycholate, 0.1% SDS) containing 1 mM PMSF, 1 mM sodium orthovanadate, and 10 ug/mL proteinase inhibitor cocktail. Lysates are incubated on ice for 15 minutes, centrifuged, and transferred supernatant to a clean tube. 50 to 100 ug is used for analysis by SDS-PAGE. Resolved proteins are electro transferred onto PVDF membrane. […]

PC-3 = test: Cancer cell proliferation, tritiated thymidine incorporation; type: cell-based, human; conditions: PC-3 cultured in vitro
Excerpt: (§1) TDFRP Compound Inhibition of LNCaP Cancer Cell Proliferation. BMP-6 and a TDFRP compound (SEQ ID NO:45) inhibited the proliferation of prostate cancer cells (LNCaP and PC-3) cultured in vitro as detected by the incorporation of tritiated thymidine (a measure of cell proliferation.
(§2) Prostate cancer is one of the most common cancers in men. […] Moreover, it has been shown that BMP signals inhibit the growth and the proliferation of human prostate tumor cells by upregulating the cyclin-dependent kinase inhibitor (CDKI) p21 (CIP1/WAF1) and decreasing the activity of Cdk2, leading to hypophosphorylation of Rb proteins. TDFRP compounds have been screened in in vitro prostate and bladder cancer bioassays to assess growth inhibitory activity of the compounds (FIG. 3). ^3H-thymidine incorporation is used as a marker for cell proliferation activity in human prostate and bladder cancer cell lines. Cisplatin inhibits ^3H-thymidine incorporation, indicating a tumor-growth suppressive activity of cisplatin in both human prostate and bladder cancer cells. TDFRP compounds are assayed in these cancer cells for the ability to induce receptor-regulated Smad 1/5 phosphorylation in a dose-dependent manner (FIG.).
as §2, with “(FIGS. 3, 28).” for “(FIG. 3).”, “(FIGS. 3, 28).” for “(FIG.).”

LNCaP = test: as above; type: cell-based, human; conditions: LNCaP cultured in vitro
Excerpt: as §1, §2
as §2, with “(FIGS. 3, 28).” for “(FIG. 3).”, “(FIGS. 3, 28).” for “(FIG.).”

B1: BMP-6: bone morphogenetic protein BMP-6 (Vgr-1) (protein, UniProt P22004 375-513, looked up)
Bone morphogenetic protein 6: SASSRRRQQSRNRSTQSQDVARVSSASDYNSSELKTACRKHELYVSFQDLGWQDWIIAPKGYAANYCDGECSFPLNAHMNATNHAIVQTLVHLMNPEYVPKPCCAPTKLNAISVLYFDDNSNVILKKYRNMVVRACGCH
- Smad phosphorylation and activation [1]: induced; also recorded: Smad 1, 5, 8 phosphorylation and activation
- proliferation (incorporation of tritiated thymidine) (PC-3): inhibited
- proliferation (incorporation of tritiated thymidine) (LNCaP): inhibited

From patent US8911953B2, “TDF-related compounds and analogs thereof, analogs and bioactive fragments” (Thrasos Innovation, Inc., priority 2005, dated 2014)
